Measured values: patent publication US20110201105A1, “LACTATION-ASSOCIATED POLYPEPTIDES” (Dairy Australia Limited, priority 2007, published 2011)
Entries after “also recorded” stand apart in the source; their conditions may differ.

Tests used:
[1] = test system: p38 MAPK; test: p38 MAPK assay of inflammatory activity in RAW macrophage cells; type: cell-based
Description: Plasmids containing Tammar wallaby LAMs were directionally cloned into the expression vector pCMV Sport 6.0, and then transfected into the human kidney cell line HK293. A total of 1 μg of LAM-containing plasmid DNA and 10 ng of pEGFP-C1 plasmid was introduced into 70% confluent HK293 cells in 2 cm^2 wells containing 500 ul of opti-MEM-1 media. Transfection success was assessed by observing green fluorescence of cells by fluorescent microscopy. After 48 hours conditioned media containing the secreted polypeptide was collected and frozen at −20° C. The media containing the secreted polypeptides was then used directly in a variety of bioactivity assays. For the assays described below, samples of secreted polypeptides were aliquoted into individual wells of 96 or 384 well plates and stored, prior to assaying, either frozen or lyophilized.
A negative control created by transfection with an insertless vector was used in all assays. For the assays described in Examples 4A, 4B, 4C and 4D results for samples were in the form of relative fluorescence units (RFU) as described herein. […] In some cases, RFU less than two standard deviations from the mean were considered significant if the LAM sample in question produced a positive result in another assay. […]
Activation of p38 MAPK was assessed in RAW macrophage cells. […]

[2] = test system: trefoil 1; test: Induction of trefoil proteins in AGS cells (peroxidase immunodetection); type: cell-based, human
Description: FIGS. 11A and B: Peroxidase assay for trefoil activity. Supematants of HEK293 cells expressing tammar mammary clones were applied to the human gastric epithelial cell line, AGS, for 48 hours. The resultant AGS cell conditioned media containing stimulated AGS cell secreted proteins, and the AGS cells, were lysed. Samples of the AGS cell secreted proteins and cell lysates, and a recombinant positive control were transferred to a solid support and probed using a rabbit anti-trefoil 1 antibody and a secondary goat anti-rabbit antibody conjugated to horse radish peroxidase was used to detect the trefoil 1. A: Detection of secreted trefoil 1 in supematants from stimulated AGS cells. B: Detection of expression of trefoil 1 in stimulated AGS cell lysate samples.
In addition, supernatants of HEK293 cells expressing tammar mammary clones were applied to the human gastric epithelial cell line, AGS, for 48 hours. The resultant AGS cell conditioned media containing stimulated AGS cell secreted proteins (i.e. supernatant) were collected and the AGS cells were lysed. […]

[3] = test system: chicks; test: Chick growth assay (in ovo injection, weight at hatching); type: in vivo
Description: FIG. 5. Chick growth assay by measuring weight. 10 LAMs (being bovine homologues having homology to specific Tammar ESTs), 3 known bovine cathelicidins, and four bovine cathelicidin variants were tested. Conditioned media containing a LAM polypeptides or bovine cathelicidins or variants thereof was diluted in a total of 1 ml of normal saline. Eggs on day 16 of incubation were injected with 1 ml of the media containing the into the broad end of the egg. Chicks were weighed on day of hatching. The overall condition of the chick was assessed including the possible presence of stumpy legs and/or loss of down feathers.
Conditioned media containing LAM polypeptides or bovine cathelicidins or variants thereof were diluted in a total of 1 ml of normal saline. Eggs on day 16 of incubation were injected in ovo with 1 ml of LAM polypeptides or bovine cathelicidins or variants thereof into the broad end of the egg. Chicks were weighed on day of hatching. Controls included saline only, or saline and 10 mg/ml of a peptide as a random peptide control.
As set out in Table 23, the left column indicates the polypeptide used in the assay while the right column contains chick weight in grams as a measurement of chick growth. Bolded numbers represent a chick(s) larger than the controls and more than 2 standard deviations from the mean. In addition, bolded numbers represent chicks that have been killed. The mean represents the weight of all the chicks tested within this experiment.

[4] = test system: mouse embryonic stem (ES) cells; test: Cellular differentiation assay, mouse ES cells with Oct4-βgal transgene; type: cell-based; details: tammar wallaby polypeptides, LIF 1000 U/ml, 1:5 dilution, 48 hours (FIG. 7)
Description: FIG. 7. Cellular differentiation assay. To determine the ability of LAMs to influence cell differentiation, mouse embryonic stem (ES) cells were cultured in the presence of leukemia inhibitory factor (LIF) 1000 U/ml and the LAM in question a 1 in 5 dilution of the secreted polypeptides and cultured for 48 hours. […] This figure contains Panel A (Negative control) and Panels B to L (Presence of a LAM for which one LAM polypeptide is represented in one panel).
To determine the ability of LAMs to influence cellular differentiation, mouse embryonic stem (ES) cells were cultured in the presence of a leukemia inhibitory factor (LIF) 1000 U/ml and a 1:5 dilution of the secreted polypeptide LAMs for 48 hours.

[5] = test system: HC11 cells; test: Cell growth with cathelicidins in HC11 cells; type: cell-based, mouse; design: cell growth Rep. 1 / cell growth Rep. 2 / cell growth Rep. 3 / cell growth Rep. 4 / cell growth Mean: unit not given here; details: 72 hours
Description: FIG. 2. Cellular growth assay with HC11 cells. Mouse mammary epithelial cells, HC11 cells, were grown in media conditioned with: mock transfection (control), LAM32, LAM32a or LAM32b for 72 hours. Samples were performed in triplicate and the cells from each triplicate counted in triplicate. […] LAM 32 is represented as set forth in SEQ ID NO: 188, and two splice variants thereof, designated LAM32a and 32b as set forth in SEQ ID NO: 215 and 207 respectively.
As shown in FIG. 2 equal numbers of mouse mammary HC11 cells were grown in the presence of either a negative control or tammar wallaby cathelicidin-associated polypeptide, namely LAM 32 (SEQ ID NO: 188), LAM 32a (SEQ ID NO: 215) or LAM 32b (SEQ ID NO: 207) in order to determine the effect of these LAMs on cellular growth.
(§1) HC11 cells were initially plated at 50 percent confluency and cultured for 72 hours in a 1:10 dilution of serum and antibiotic free Optimem and media conditioned with cathelicidin associated polypeptides. The medium was removed and then washed gently for 2 minutes with Mg^2+- and Ca^2+-free phosphate buffered saline (PBS), 0.05% Trypsin and 1:5000 Versene to disrupt cell aggregates. Cells were collected by scraping and washed twice by resuspension in complete medium followed by centrifugation. The cells were again resuspended and counted in triplicate using a Luber haemocytometer.
(§2) The cells were counted in triplicate using a Luber haemocytometer. The negative control was media alone (i.e. conditioned media […] insertless vector). The samples were deemed statistically significant using a t-test comparing the control with the sample if the values of cell growth were 2 standard deviations higher than the mean of the negative control.

[6] = test system: mouse ES cells; test: Cell growth with cathelicidins in mouse ES cells; type: cell-based; design: cell growth Rep. 1 / cell growth Rep. 2 / cell growth Rep. 3 / cell growth Mean: unit not given here; details: 24 hours
Description: as §1, with “Mouse ES” for “HC11”, “were” for “were initially”, “24” for “72”, “saline” for “saline (PBS),”
as §2

[7] = test system: bovine mammary epithelial cells; test: Cellular morphology assay, bovine mammary epithelial cells; type: cell-based; details: 1:5 dilution of secreted polypeptide, 48 hours (FIG. 6)
Description: FIG. 6. Cellular morphology assay. To determine the ability of LAMs to influence cellular morphology, bovine mammary epithelial cells were plated onto a extracellular matrix and the cells were subsequently allowed to migrate to form mammospheres in the presence or absence of each LAM. The figure contains Panel A (Negative control) and Panels B to G (Presence of a LAM for which one LAM polypeptide is represented in one panel).
Candidate LAM polypeptides that are able to regulate the function and differentiation of the mammary gland were screened by culturing bovine mammary epithelium in the presence of a 1:5 dilution of the secreted polypeptide LAMs for 48 hours as described for the TGR assays in Example 4. Cells were examined microscopically for gross morphological changes and for their ability to induce cell differentiation.

[8] = test system: ERK1/2; test: ERK1/2 activation in Swiss 3T3 cells by bovine polypeptides; type: cell-based; details: cell supernatants containing bovine polypeptide, listed as CAMP
Description: Swiss 3T3 cells were treated with cell supematants containing bovine TCN 1 polypeptide. […] An increase in relative fluorescence units over the control indicates ERK activation.
Aliquots of the CRC-IDP samples were used to activate HSC-2 cells in a 96 well plate. Confluent and serum-starved cells were presented with the samples at a final dilution of 1:2. Cells were also stimulated with an internal control for activation of cells (Stim=10% serum) or left unstimulated (unstim). After 10 minutes with the CRC-IDP samples or control stimulus, cells were lysed and assayed for ERK activation using TGR's proprietary assay technology (SureFire). FIG. 12 presents the results as the mean+/−SEm of 3 separate samples. The data is from a single experiment.

B1: LAM 19: EBP: Emopamil binding protein (sterol isomerase); tammar polypeptide SEQ ID NO 49, bovine SEQ ID NO 109 (protein)
chain: MTTNTSPMHPYWPRHLRLDNFVPNDYPTWHILAGLFSVSGVLVVATWLLSGRAAVVPLGTWRRLSLCWFAVCGFIHLVIEGWFSLYHADLLGDQAILSQLWKEYAKGDSRYILNDNFMICMETVTAYLWGPLSLWVVIAFLRHQPLRFVLQLVVSMGQVYGDVLYFLTEYRDGFQHGELGHPLYFWFYFVFLNSLWLVVPGLLILDSIKQLAHAQSILDAKAPKAKSKQXLKSDELGLNTGYEELSTYQKIPILAPTGRKDKLN
modifications: X: residue not identified in the source; ends and bridges not checked
RFU (p38 activation, pro-inflammatory activity) ([1]; 30 minutes, Mean RFU 12253, SD RFU 7395, negative control 11004 RFU): 66112 RFU
pro-inflammatory activity (RFU significantly above the mean) ([1]; text summary of Tables 12 and 13): pro-inflammatory activity
Trefoil-inducing activity: Function ([2]; 48 hours, trefoil 1 in supernatant (secretion) and cell lysate (expression)): enhanced expression and secretion
trefoil 1 expression and/or secretion ([2]; Table 16): enhance trefoil 1 expression in AGS cells as well as enhance the secretion of trefoil 1
chick size versus controls ([3]; body weight relative to mean/median of all chicks tested): falls just outside 2 standard deviations from the median of chick weights
Chick weight ([3]; bovine polypeptides in conditioned media, 1 ml in ovo on day 16 of incubation, weighed on day of hatching, Saline 51.0): 57.1 grams
cellular differentiation [4]: induced cellular differentiation

B2: LAM 32: Cathelicidin antimicrobial peptide; tammar wallaby polypeptide SEQ ID NO 188, bovine SEQ ID NO 220 (protein)
chain: QALSYREAVLRAVDQLNEQSSEPNIYRLLELDQPPQDDEDPDSPKRVSFRVKETVCSRTTQQPPEQCDFKENGLLKRCEGTVTLDQVRGNFDITCNNHQSIRITKQPWAPPQAARLCRIVVIRVCR
cell growth Rep. 1 ([5]; 1:10 dilution conditioned media, -ve control 0.727): 0.985
cell growth Rep. 2 ([5]; -ve control 0.76): 0.927
cell growth Rep. 3 ([5]; -ve control 0.786): 0.968
cell growth Rep. 4 ([5]; -ve control 0.808): 1.026
cell growth Mean ([5]; -ve control mean 0.77025): 0.9765
cell growth versus control (significance) ([5]; P<0.05 t-test): significantly more cells
cell growth Rep. 1 ([6]; 1:10 dilution conditioned media, -ve control 0.34): 0.721
cell growth Rep. 3 ([6]; -ve control 0.352): 0.784
cell growth Rep. 2 ([6]; -ve control 0.474): 0.548
cell growth Mean ([6]; -ve control mean 0.388666667): 0.6843
influence on cellular morphology [7]: induced a significant change in quaternary structure and/or cellular morphology
ERK1/2 activation [8]: activates ERK1/2; also recorded: ERK1/2 activation
